How the values were obtained:
[1] = molecular target: uL23(52pBpa), in 70S ribosomes, RNCs or living cells (E. coli) (UniProt P0ADZ0); assay: cross-linking; competition: SecA (2.5 uM) premixed with Ffh/SRP (0.5, 2.5, 12.5 uM) in buffer C, 10 min 30°C with 0.5 uM 70S ribosomes bearing pBpa at position 71 or 52 of uL23, UV 20 min on ice; anti-SecA and anti-Ffh blots
[2] = molecular target: uL23(71pBpa), in 70S ribosomes, RNCs or living cells (E. coli) (UniProt P0ADZ0); assay: as above

Substance: Ffh, the protein component of the bacterial signal recognition particle (SRP), purified (from UniProt P0AGD7 1-453) (natural protein)
- reduction of the SecA-uL23 cross-linking product with SRP equimolar to SecA [1]: 50%
- reduction of the SecA-uL23 cross-linking product with SRP equimolar to SecA [2]: 50%

Reference: paper PMC6692507
